The source of these data is article PMC12418388 (2025).

As usually defined, the Kd is the constant that tells how readily two partners part at equilibrium. Read a high Kd as a looser complex.

This assay addresses T1, DDX6 (Homo sapiens, UniProt P26196).
T1 chain: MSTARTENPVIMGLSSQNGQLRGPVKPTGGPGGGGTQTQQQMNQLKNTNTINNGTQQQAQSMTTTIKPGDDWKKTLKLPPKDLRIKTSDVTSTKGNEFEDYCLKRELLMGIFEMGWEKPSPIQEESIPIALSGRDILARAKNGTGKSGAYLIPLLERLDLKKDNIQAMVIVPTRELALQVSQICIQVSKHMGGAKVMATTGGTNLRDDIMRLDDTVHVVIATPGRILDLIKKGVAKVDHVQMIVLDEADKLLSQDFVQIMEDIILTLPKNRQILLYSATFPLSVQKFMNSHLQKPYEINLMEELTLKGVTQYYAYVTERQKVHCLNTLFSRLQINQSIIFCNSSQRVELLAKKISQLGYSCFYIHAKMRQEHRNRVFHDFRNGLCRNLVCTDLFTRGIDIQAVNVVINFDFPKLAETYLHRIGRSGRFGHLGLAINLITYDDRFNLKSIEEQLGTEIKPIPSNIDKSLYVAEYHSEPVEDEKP
Description: BLI. A general note: Biolayer interferometry detects binding as a change in optical thickness at a sensor tip.

B1: DDX3X (protein)
chain: SHVAVENALGLDQQFAGLDLNSSDNQSGGSTASKGRYIPPHLRNREATKGFYDKDSSGWSSSKDKDAYSSFGSRSDSRGKSSFFSDRGSGSRGRFDDRGRSDYDGIGSRGDRSGFGKFERGGNSRWCDKSDEDDWSKPLPPSERLEQELFSGGNTGINFEKYDDIPVEATGNNCPPHIESFSDVEMGEIIMGNIELTRYTRPTPVQKHAIPIIKEKRDLMACAQTGSGKTAAFLLPILSQIYSDGPGEALRAMKENGRYGRRKQYPISLVLAPTRELAVQIYEEARKFSYRSRVRPCVVYGGADIGQQIRDLERGCHLLVATPGRLVDMMERGKIGLDFCKYLVLDEADRMLDMGFEPQIRRIVEQDTMPPKGVRHTMMFSATFPKEIQMLARDFLDEYIFLAVGRVGSTSENITQKVVWVEESDKRSFLLDLLNATGKDSLTLVFVETKKGADSLEDFLYHEGYACTSIHGDRSQRDREEALHQFRSGKSPILVATAVAARGLDISNVKHVINFDLPSDIEEYVHRIGRTGRVGNLGLATSFFNERNINITKDLLDLLVEAKQEVPSWLENMAYEHHYKGSSRGRSKSSRFSGGFGARDYRQSSGASSSSFSSSRASSSRSGGGGHGSSRGFGGGGYGGFYNSDGYGGNYNSQGVDWWGN
B1 came in with a Kd of 389 nM.
